In patent US20140322196A1:

Legend:
Test in all cases: cell-based or functional assay
[1] = target: Hemagglutinin (HA) of Influenza A virus A/Parma/24/09 (Brisbane-like) (oseltamivir-resistant) H1N1 (Influenza A virus A/Parma/24/09 H1N1)
[2] = target: Hemagglutinin (HA) of Influenza A virus A/Solomon 3/2006 H1N1 (inactivated subunits, vaccine) (Influenza A virus A/Solomon 3/2006 H1N1)
[3] = target: Hemagglutinin (HA) of Influenza A virus A/Wisconsin/67/2005 H3N2 (inactivated subunits, vaccine) (Influenza A virus A/Wisconsin/67/2005 H3N2)

B1: bLf C-lobe (aa 345-689) (protein)
chain: VVWCAVGPEEQKKCQQWSQQSGQNVTCATASTTDDCIVLVLKGEADALNLDGGYIYTAGKCGLVPVLAENRKSSKHSSLDCVLRPTEGYLAVAVVKKANEGLTWNSLKDKKSCHTAVDRTAGWNIPMGLIVNQTGSCAFDEFFSQSCAPGADPKSRLCALCAGDDQGLDKCVPNSKEKYYGYTGAFRCLAEDVGDVAFVKNDTVWENTNGESTADWAKNLNREDFRLLCLDGTRKPVTEAQSCHLAVAPNHAVVSRSDRAAHVKQVLLHQQALFGKNGKNCPDKFCLFKSETKNLLFNDNTECLAKLGGRPTYEEYLGTEYVTAIANLKKCSTSPLLEACAFLTR
[1]
  activity on viral hemagglutination (HI): 10 nM
[2]
  activity on viral hemagglutination (HI): 5 pM
[3]
  activity on viral hemagglutination (HI): 1.2 pM

B2: bLf C-lobe (aa 285-689) (protein)
chain: SFQLFGSPPGQRDLLFKDSALGFLRIPSKVDSALYLGSRYLTTLKNLRETAEEVKARYTRVVWCAVGPEEQKKCQQWSQQSGQNVTCATASTTDDCIVLVLKGEADALNLDGGYIYTAGKCGLVPVLAENRKSSKHSSLDCVLRPTEGYLAVAVVKKANEGLTWNSLKDKKSCHTAVDRTAGWNIPMGLIVNQTGSCAFDEFFSQSCAPGADPKSRLCALCAGDDQGLDKCVPNSKEKYYGYTGAFRCLAEDVGDVAFVKNDTVWENTNGESTADWAKNLNREDFRLLCLDGTRKPVTEAQSCHLAVAPNHAVVSRSDRAAHVKQVLLHQQALFGKNGKNCPDKFCLFKSETKNLLFNDNTECLAKLGGRPTYEEYLGTEYVTAIANLKKCSTSPLLEACAFLTR
[1]
  activity on viral hemagglutination (HI): 24 nM
[2]
  activity on viral hemagglutination (HI): 5 pM
[3]
  activity on viral hemagglutination (HI): 1.6 pM
